Data: article PMC6602525 (Cell, 2019)

Target: PfRH5FL (full-length PfRH5 protein comprising amino acids E26–Q526) (P. falciparum (3D7 clone), UniProt Q8IFM5 26-526, T40A | T216A | T286A | T299A)
Experiment: SPR
Settings: both partners purified

B1: PfP113Nt (domain or fragment)
chain: YVHNDVIKFGEENSLKCSQGNLYVLHCEVQCLNGNNEIIHKRCNDDIEKKCNGNNKCIYFFEYELRKKTQSFRNKNSIEISECVESEQNEVKTSTTCLLSNSFILDEAFIQYFFFIKNKNEEPVICKDGNINIKSALLHSPFCEIKLKDISEYIRKKCDNNKECLIDPLDVQKNLLNEEDPCYINNSYVSVNVVCNK
  binding result: binds
